*1 amine or outer side, *2 acyl side, *3 side chain or, on linkers, in order; H or OH if unused. Where a SMILES comes first, the peptide text is derived from it. Side-chain parts run from the residue outwards. The star is where a group is joined. DOTA = O=C(O)CN1CCN(CC(=O)O)CCN(CC(=O)*)CCN(CC(=O)O)CC1; NH(2-(imidazol-4-yl)ethyl) = c1ncc(CCN*)[nH]1; Suc = O=C(CCC(=O)[*:2])[*:1]
Tests used:
[1] = target: peptide containing a single HSG substituent and a thiol (mono HSG peptide); assay: BIAcore, mono HSG peptide coupled to a CM-5 chip
[2] = target: carcinoembryonic antigen (CEA) (UniProt P06731); assay: SE-HPLC, 125I-labeled bsMAb with an excess of CEA
Sequence of carcinoembryonic antigen (CEA) (P06731 35-685 limits assumed): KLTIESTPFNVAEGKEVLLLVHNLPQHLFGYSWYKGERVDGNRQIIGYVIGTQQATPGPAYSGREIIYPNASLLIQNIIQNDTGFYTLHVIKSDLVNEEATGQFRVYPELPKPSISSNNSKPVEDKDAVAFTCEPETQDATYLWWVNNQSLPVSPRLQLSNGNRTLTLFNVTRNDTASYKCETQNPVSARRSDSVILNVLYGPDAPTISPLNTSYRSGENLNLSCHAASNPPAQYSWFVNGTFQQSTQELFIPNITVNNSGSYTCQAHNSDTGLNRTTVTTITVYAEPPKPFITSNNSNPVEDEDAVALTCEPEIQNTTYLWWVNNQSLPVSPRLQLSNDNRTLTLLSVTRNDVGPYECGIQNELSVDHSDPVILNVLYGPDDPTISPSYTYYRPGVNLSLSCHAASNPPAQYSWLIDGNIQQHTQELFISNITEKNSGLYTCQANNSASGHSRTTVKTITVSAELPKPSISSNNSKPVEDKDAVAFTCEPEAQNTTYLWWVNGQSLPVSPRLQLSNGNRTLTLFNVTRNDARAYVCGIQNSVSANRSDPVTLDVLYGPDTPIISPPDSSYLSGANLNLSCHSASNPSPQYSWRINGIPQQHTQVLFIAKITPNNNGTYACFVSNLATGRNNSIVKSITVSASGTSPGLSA

[3] = target: DOTA-Phe-Lys(HSG)-D-Tyr-Lys(HSG)-NH2 (IMP 241); assay: in vivo pretargeting, GW-39 tumors, 3 h after 111In-IMP-241
[4] = type: in vitro ADME, mouse
Source text: The peptide was monitored as described above by HPLC.

[5] = target: carcinoembryonic antigen (CEA) (UniProt P06731); assay: immunoreactivity of 99mTc-hMN-14 Fab′; method and antigen not given

hMN-14 × m679 F(ab′)2 bsMAb (bispecific antibody)
Kd [1]: 1.5 nM | percent of radiolabeled product shifting to a higher molecular weight [2]: > 90% | ratio of the % ID/g of the peptide compared to the bsMAb in the tumor [3]: 3.9

NC(=O)[C@H](CCCCNC(=O)CNC(=O)CCC(=O)NCCc1cnc[nH]1)NC(=O)[C@H](Cc1ccc(O)cc1)NC(=O)[C@H](CCCCNC(=O)CNC(=O)CCC(=O)NCCc1cnc[nH]1)NC(=O)[C@H](Cc1ccccc1)NC(=O)CN1CCN(CC(=O)O)CCN(CC(=O)O)CCN(CC(=O)O)CC1 [IMP 237, DOTA-Phe-Lys(HSG)-Tyr-Lys(HSG)-NH2] ({DOTA}-FK([Gly-Suc-NH(2-(imidazol-4-yl)ethyl)])YK([Gly-Suc-NH(2-(imidazol-4-yl)ethyl)])-NH2)
converted to the shorter retention time peak [4]: about 70%

B1: humanized MN-14 (hMN-14) Fab′-SH, 99mTc-labeled (Fab, INN chains, looked up, V domains shown)
VH: EVQLVESGGGVVQPGRSLRLSCSASGFDFTTYWMSWVRQAPGKGLEWIGEIHPDSSTINYAPSLKDRFTISRDNAKNTLFLQMDSLRPEDTGVYFCASLYFGFPWFAYWGQGTPVTVSS
VL: DIQLTQSPSSLSASVGDRVTITCKASQDVGTSVAWYQQKPGKAPKLLIYWTSTRHTGVPSRFSGSGSGTDFTFTISSLQPEDIATYYCQQYSLYRSFGQGTKVEIK
modifications: Fab′ 99mTc label
immunoreactive fraction [5]: 92%

Reference: patent publication US20060140858A1, “Drug pre-targeting by means of bi-specific antibodies and hapten constructs comprising a carrier peptide and the active agent(s)” (Immunomedics, Inc., priority 2002, published 2006)
